In paper PMC11108154:
“And” between values parts separate entries of the source, which are not always exact repeats. Equal values may be shown once.

Assays:
[1] = target: AMP-glucagon (generic synthetic glucagon for injection, Amphastar Pharmaceuticals) (UniProt P01275); assay: SEC; SEC-HPLC of expired lots (end of shelf life); Phenomenex Yarra 3 um SEC-2000, isocratic 55% 0.1% TFA / 45% acetonitrile, 1.000 mL/min, ambient temperature, UV 214 nm; reconstituted with the included diluent and tested immediately; monomer and dimer told by a calibration curve
[2] = target: ELI-glucagon (Eli Lilly's Glucagon, recombinant, reference listed drug) (UniProt P01275); assay: SEC; SEC-HPLC of recently released lots; Phenomenex Yarra 3 um SEC-2000, isocratic 55% 0.1% TFA / 45% acetonitrile, 1.000 mL/min, ambient temperature, UV 214 nm; reconstituted with the included diluent and tested immediately; monomer and dimer told by a calibration curve
[3] = target: ELI-glucagon (Eli Lilly's Glucagon, recombinant, reference listed drug) (UniProt P01275); assay: SEC; SEC-HPLC of expired lots (end of shelf life); Phenomenex Yarra 3 um SEC-2000, isocratic 55% 0.1% TFA / 45% acetonitrile, 1.000 mL/min, ambient temperature, UV 214 nm; reconstituted with the included diluent and tested immediately; monomer and dimer told by a calibration curve

Row | % Dimer by SEC-HPLC [1] | stoichiometry N [1] | % Dimer by SEC-HPLC [2] | stoichiometry N [2] | % Dimer by SEC-HPLC [3] | stoichiometry N [3] | Substance
1 | 0.062% and 0.08% and 0.115% | 2 |  |  |  |  | AMP-glucagon (generic synthetic glucagon for injection, Amphastar Pharmaceuticals) (from UniProt P01275 53-81) (peptide)
2 |  |  | 0.04% and 0.042% and 0.038% | 2 | 0.133% and 0.097% and 0.144% | 2 | ELI-glucagon (Eli Lilly's Glucagon, recombinant, reference listed drug) (from UniProt P01275 53-81) (peptide)
